What was measured:
[1] = target: T1, human complement factor C1q (chains A, B and C) (human, UniProt P02745 23-245; P02746 28-253; P02747 29-245); assay: method not stated; affinity stated in the description
T1 construct: In the assays C1q was the native protein in normal human serum or plasma; also called Human C1q

[2] = target: T1, human complement factor C1q (chains A, …); assay: cell-based or functional assay

T1 sequence (P02745 23-245 limits assumed, chain 1 of 3): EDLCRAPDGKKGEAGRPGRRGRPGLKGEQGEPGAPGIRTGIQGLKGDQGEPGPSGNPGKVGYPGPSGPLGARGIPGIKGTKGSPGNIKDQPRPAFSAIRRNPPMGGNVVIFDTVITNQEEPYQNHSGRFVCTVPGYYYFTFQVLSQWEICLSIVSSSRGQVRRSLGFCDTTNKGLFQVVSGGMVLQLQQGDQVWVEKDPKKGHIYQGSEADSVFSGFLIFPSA
T1 sequence (P02746 28-253 limits assumed, chain 2 of 3): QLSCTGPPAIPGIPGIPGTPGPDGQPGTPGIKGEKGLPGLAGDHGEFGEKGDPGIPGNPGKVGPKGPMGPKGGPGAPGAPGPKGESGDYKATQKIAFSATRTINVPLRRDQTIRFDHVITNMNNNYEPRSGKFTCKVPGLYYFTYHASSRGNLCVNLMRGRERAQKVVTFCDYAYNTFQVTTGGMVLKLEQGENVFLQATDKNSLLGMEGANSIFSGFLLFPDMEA
T1 sequence (P02747 29-245 limits assumed, chain 3 of 3): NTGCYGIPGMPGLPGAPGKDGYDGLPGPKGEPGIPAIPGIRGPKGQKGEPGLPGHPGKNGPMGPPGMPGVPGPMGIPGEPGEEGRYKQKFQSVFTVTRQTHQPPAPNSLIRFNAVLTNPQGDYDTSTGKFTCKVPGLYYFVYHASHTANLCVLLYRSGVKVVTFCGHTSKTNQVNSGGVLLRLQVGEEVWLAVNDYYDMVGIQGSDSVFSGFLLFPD

B1: FabA, anti-C1q antibody Fab fragment comprising heavy chain Fab fragment of SEQ ID NO: 39 and light chain Fab fragment of SEQ ID NO: 40 (Fab)
heavy: QVQLVQSGAELKKPGASVKVSCKSSGYHFTSYWMHWVKQAPGQGLEWIGVIHPNSGSINYNEKFESRVTITVDKSTSTAYMELSSLRSEDTAVYYCAGERDSTEVLPMDYWGQGTTVTVSSASTKGPSVFPLAPSSKSTSGGTAALGCLVKDYFPEPVTVSWNSGALTSGVHTFPAVLQSSGLYSLSSVVTVPSSSLGTQTYICNVNHKPSNTKVDKKVEPKSCDKTHT
light: DVQITQSPSSLSASLGERATINCRASKSINKYLAWYQQKPGKAPKLLIYSGSTLQSGIPARFSGSGSGTDFTLTISSLEPEDFAMYYCQQHNEYPLTFGQGTKLEIKRTVAAPSVFIFPPSDEQLKSGTASVVCLLNNFYPREAKVQWKVDNALQSGNSQESVTEQDSKDSTYSLSSTLTLSKADYEKHKVYACEVTHQGLSSPVTKSFNRGEC
notes: The heavy chain is truncated after the first heavy chain constant domain of IgG1; also called anti-C1q monovalent Fab; anti-C1q Fab
- Kd [1]: 0.01 nM
- IC50 for inhibition of hemolysis of CAD-sensitized human RBCs in normal human serum [2]: ~10 nM
- IC50 of inhibition of C4 and C3d deposition on human RBCs (flow cytometry) [2]: ~10 nM

— patent publication US20230391858A1 (ANNEXON, published 2023)
